# Target: receptor on the pea aphid (Acyrthosiphon pisum) gut epithelium
# Assay: cell-based or functional assay
Molecule,"Detection of PEMV RNA in the aphid hemocoel, 1-10 min (No. of positive/No. of tested) (positive samples of 4 tested)","Detection of PEMV RNA in the aphid hemocoel, 11-20 min (No. of positive/No. of tested) (positive samples of 4 tested)","Detection of PEMV RNA in the aphid hemocoel, 21-30 min (No. of positive/No. of tested) (positive samples of 4 tested)",time of feeding on virus-infected plants until viral RNA is detected in hemolymph,"Detection of PEMV RNA in the aphid hemocoel, 1-10 min (No. of positive/No. of tested) (positive samples of 6 tested)","Detection of PEMV RNA in the aphid hemocoel, 11-20 min (No. of positive/No. of tested) (positive samples of 6 tested)","Detection of PEMV RNA in the aphid hemocoel, 21-30 min (No. of positive/No. of tested) (positive samples of 6 tested)","Detection of PEMV RNA in the aphid hemocoel, 31-40 min (No. of positive/No. of tested) (positive samples of 6 tested)","Detection of PEMV RNA in the aphid hemocoel, 41-50 min (No. of positive/No. of tested) (positive samples of 6 tested)","Detection of PEMV RNA in the aphid hemocoel, 51-60 min (No. of positive/No. of tested) (positive samples of 6 tested)","Detection of PEMV RNA in the aphid hemocoel, 61-75 min (No. of positive/No. of tested) (positive samples of 2 tested)","Detection of PEMV RNA in the aphid hemocoel, 76-90 min (No. of positive/No. of tested) (positive samples of 2 tested)"
control phage PhDC6 displaying control peptide C6,0,0,2,30 min,–,–,–,–,–,–,–,–
"ATCSKKYPRSPCMA (peptide, not shown: large carriers) [phage PhD3.1 displaying peptide GBP3.1]",–,–,–,60 min,0,0,0,0,0,1,0,0
